Source: PMC7679444

What follows are substances tested against GST-HA-ATG16L1(231–607) (UniProt Q676U5) (assay: peptide microarray). Settings: 800, 600, 400 nM; n = 9; read off a plot.
A percent of parent of 50 % WT was found for “TMEM59 peptide (residues 268–280), wild type (from UniProt Q9BXS4) I276del” in this work.
A percent of parent of 15 % WT was found for “TMEM59 peptide (residues 268–280), wild type (from UniProt Q9BXS4) K273del” in this work.
A percent of parent of 32 % WT was found for “TMEM59 peptide (residues 268–280), wild type (from UniProt Q9BXS4) K273del; I276del” in this work.
A percent of parent of 22 % WT was found for “TMEM59 peptide (residues 268–280), wild type (from UniProt Q9BXS4) K273del; L274del” in this work.
A percent of parent of 7 % WT was found for “TMEM59 peptide (residues 268–280), wild type (from UniProt Q9BXS4) K273del; L274del; I276del” in this work.
A percent of parent of 120 % WT was found for “TMEM59 peptide (residues 268–280), wild type (from UniProt Q9BXS4) K273del; L274del; S275del” in this work.
A percent of parent of 160 % WT was found for “TMEM59 peptide (residues 268–280), wild type (from UniProt Q9BXS4) K273del; S275del” in this work.
A percent of parent of 22 % WT was found for “TMEM59 peptide (residues 268–280), wild type (from UniProt Q9BXS4) L274del” in this work.
A percent of parent of 20 % WT was found for “TMEM59 peptide (residues 268–280), wild type (from UniProt Q9BXS4) L274del; I276del” in this work.
A percent of parent of 120 % WT was found for “TMEM59 peptide (residues 268–280), wild type (from UniProt Q9BXS4) L274del; S275del” in this work.
A percent of parent of 72 % WT was found for “TMEM59 peptide (residues 268–280), wild type (from UniProt Q9BXS4) L274del; S275del; I276del” in this work.
A percent of parent of 160 % WT was found for “TMEM59 peptide (residues 268–280), wild type (from UniProt Q9BXS4) P270del” in this work.
A percent of parent of 180 % WT was found for “TMEM59 peptide (residues 268–280), wild type (from UniProt Q9BXS4) P270del; S271del” in this work.
A percent of parent of 180 % WT was found for “TMEM59 peptide (residues 268–280), wild type (from UniProt Q9BXS4) S271del” in this work.
A percent of parent of 100 % WT was found for “TMEM59 peptide (residues 268–280), wild type (from UniProt Q9BXS4) S275del” in this work.
A percent of parent of 80 % WT was found for “TMEM59 peptide (residues 268–280), wild type (from UniProt Q9BXS4) S275del; I276del” in this work.
A percent of parent of 20 % WT was found for “TMEM59 peptide (residues 268–280), wild type (from UniProt Q9BXS4) V269del” in this work.
A percent of parent of 130 % WT was found for “TMEM59 peptide (residues 268–280), wild type (from UniProt Q9BXS4) V269del; P270del” in this work.
A percent of parent of 180 % WT was found for “TMEM59 peptide (residues 268–280), wild type (from UniProt Q9BXS4) V269del; S271del” in this work.
